Test results published in patent publication US20010043931A1, “Human respiratory syncytial virus” (Whitehead Institute for Biomedical Research, priority 1999, published 2001).

Columns and labels:
[1] = Thermal denaturation followed by circular dichroism (CD) spectroscopy; format: physicochemical; conditions: at 10 μM in PBS
Description: CD spectra were measured at protein concentration 10 μM in PBS buffer using an AVIV 62 DS spectrometer (Aviv Associates, Lakewood, N.J.), as described (Fass, D. & Kim, P. S., Curr. Biol., 5:1377-1383 (1995).

[2] = molecular target: T1, HRSV-N51 peptide (residues 157-207 of HRSV F0) (human respiratory syncytial virus …); assay: complex left after proteinase K digestion of HRSV-N57/C45; CD thermal melt
T1 construct: Made by proteinase K trimming of the HRSV-N57/C45 complex
T1 peptide: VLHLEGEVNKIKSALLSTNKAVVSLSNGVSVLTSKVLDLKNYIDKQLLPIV

HRSV-N57: N-terminal trypsin fragment of recRSV-1, residues 153-209 of HRSV F0 (SEQ ID NO.: 1) (AVSKVLHLEGEVNKIKSALLSTNKAVVSLSNGVSVLTSKVLDLKNYIDKQLLPIVNK)
apparent Tm [1]: 40-50 °C

HRSV-C45: C-terminal trypsin fragment of recRSV-1, residues 476-520 of HRSV F0 (SEQ ID NO.: 2) (NFYDPLVFPSDEFDASISQVNEKINQSLAFIRKSDELLHNVNAGK)
apparent Tm [1]: does not show a thermal unfolding transition

B1: HRSV-C39 peptide (residues 482-520 of HRSV F0) (peptide)
peptide: VFPSDEFDASISQVNEKINQSLAFIRKSDELLHNVNAGK
notes: Made by proteinase K trimming of the HRSV-N57/C45 complex
binding result [2]: binds
